From the Human Domainome abundance scans (Beltran et al. 2025)

B1: Chromodomain-helicase-DNA-binding protein 4, residues 444 to 496; numbered along this chain, Q14839 (parent)
chain: EDDHHMEFCRVCKDGGELLCCDTCPSSYHIHCLNPPLPEIPNGEWLCPRCTCP
B2: Protein piccolo, residues 1058 to 1114; numbered along this chain, Q9Y6V0 (parent)
chain: TCPLCKTELNIGSKDPPNFNTCTECKNQVCNLCGFNPTPHLTEIQEWLCLNCQTQRA

Variants of: B1
Assay: abundance fitness (aPCA) (normalised: wild type 0, dead -1); higher = more abundant; growth selection in yeast, the domain comes from the species named
Settings: Homo sapiens

Abundance fitness of substitutions, site by site:
I40: H 0.017 | N -0.066 | P 0.112 | G -0.007 | A 0.07 | E 0.056 | F -0.057 | D -0.152 | C 0.019 | S -0.023 | K 0.11 | Q 0.01 | W -0.041 | Y 0.016 | T -0.005 | M -0.106 | L 0.01 | V 0.055 | R 0.151
P48: R -0.352 | M -0.363 | I -0.941 | H -0.278 | G -0.284 | W -0.349 | T -0.27 | E -0.042 | C -0.815 | F -0.717 | D -0.102 | S -0.21 | L -0.622 | Y -0.567 | K -0.397 | V -0.504 | N -0.54 | A -0.155
C47: P -0.552 | A -0.804 | T -0.732 | Y -0.78 | N -0.559 | L -0.639 | W -0.766 | I -0.697 | G -0.652 | S -0.598 | F -0.803 | R -0.664 | Q -0.627 | H -0.36 | E -0.606 | V -0.605 | K -0.503
E44: M -0.084 | W -0.413 | R -0.001 | Q -0.104 | H -0.057 | G 0.03 | D -0.156 | S -0.018 | C -0.21 | L -0.024 | I -0.119 | V -0.143 | A -0.07 | K 0.064 | N 0.095 | T -0.122 | F -0.152
L37: C -0.194 | R -0.233 | P 0.018 | Y -0.274 | V -0.066 | M -0.115 | S -0.194 | I -0.049 | Q -0.135 | T -0.23 | W -0.248 | F -0.271 | N -0.244 | E -0.249
C50: G -0.727 | I -1.08 | L -0.845 | E -0.708 | W -1.11 | D -0.633 | Y -1.02 | T -0.78 | F -0.895 | H -0.286 | K -0.58 | M -0.986 | V -0.791 | Q -0.769 | P -0.755 | N -0.46 | S -0.622
E39: C -0.178 | K 0.121 | Y -0.201 | H -0.132 | Q -0.052 | D -0.292 | V -0.025 | N 0.026 | T 0.025 | F -0.056 | G -0.056 | R -0.09 | W -0.35 | S 0.021 | L -0.189 | P -0.152 | A 0.011 | I -0.026 | M -0.095
T51: H -0.169 | D 0.152 | V -0.048 | K -0.051 | Y -0.171 | C -0.151 | S 0.013 | Q -0.03 | G -0.136 | M -0.097 | E 0.074 | P 0.031 | R -0.073 | L -0.003 | N 0.12 | F 0.048 | W -0.12
N42: A 0.037 | K 0.081 | S -0.063 | C -0.061 | Q 0.005 | W -0.253 | F -0.219 | L -0.077 | R -0.022 | H -0.094 | P -0.065 | M -0.127 | D -0.085 | I -0.096 | G 0.038 | Y -0.197 | V 0.032
G43: H -0.13 | L -0.201 | C -0.16 | I -0.144 | A -0.079 | E -0.07 | V -0.075 | P -0.287 | M -0.195 | S -0.061 | F -0.188 | Q -0.032 | K 0.03 | R -0.044 | D -0.151 | N -0.068
P36: I -0.195 | D -0.323 | Q -0.026 | C -0.546 | A -0.035 | G -0.244 | L -0.458 | W -0.546 | N -0.294 | S -0.1 | T -0.18 | E -0.33 | F -0.604 | M -0.274 | R -0.095 | V -0.22 | K 0.102 | Y -0.539
P41: A -0.146 | H -0.142 | V -0.154 | D -0.282 | F -0.06 | I -0.106 | S -0.226 | N 0.029 | M -0.187 | Q -0.18 | K -0.118 | C -0.135 | R -0.144 | Y -0.463 | E -0.2 | L -0.228 | T -0.114 | G -0.133
P53: H 0.616 | S -0.455
P35: Y -0.301
L46: V 0.106 | N 0.211 | T -0.02 | W -0.266 | D -0.252 | Q -0.019 | Y -0.061 | R 0.008 | I -0.012 | A -0.033 | E -0.092 | K 0.079 | P -0.426
C52: S -0.002 | G 0.294 | D -0.218 | I -0.189 | V 0.032 | H 0.096 | W -0.033 | Q 0.145 | E 0.489 | M 0.433 | N -0.161 | Y -0.019 | P -0.667 | F -0.358 | L 0 | T 0.288
P38: M -0.082 | F -0.153 | E -0.096 | I -0.059 | G -0.196 | W -0.172 | S -0.075 | Q 0.085 | V -0.113 | N 0.065 | T -0.003 | A -0.014 | H -0.008 | L -0.115 | K 0.088 | R -0.046 | D -0.031
W45: G -0.487 | D -0.473 | H -0.489 | C -0.616 | T -0.43 | A -0.517 | I -0.533 | F -0.085 | P -0.503 | K -0.549 | Y -0.357 | V -0.431 | N -0.428 | L -0.591 | E -0.517 | Q -0.509 | R -0.446 | S -0.443 | M -0.398
R49: L -0.101 | N 0.04 | M -0.101 | P -0.187 | W -0.132 | V 0.006 | T 0.043 | H 0.047 | F -0.089 | E -0.108 | I 0.016 | G 0.069 | Y -0.201 | S -0.095 | D 0.145 | Q 0.034 | A 0.019

Variants of: B2
Assay: as above
Settings: Homo sapiens

Abundance fitness: each site, then its substitutions
L9: I -0.098
K14: C -0.643
C33: H 0.076 | K -0.822
N27: I 0.004
C25: M -0.742
N31: Y 0.011 | M -0.147
E24: T 0.034
N36: F 0.044
T1: A -0.534
T7: M -0.301
G34: Q -0.072
C5: A -0.844 | Y -0.947
W47: T -0.195 | Q -0.09
Q53: V -0.256 | C -0.464 | W -0.383
C52: D -0.755 | M -0.981
N10: F -0.103
K26: S 0.119
C30: A -0.562
H40: I -0.018
K6: R -0.283
I44: R -0.138
V29: D -0.32 | M -0.039
N51: V -0.326 | G -0.091
L41: T 0.109
L48: S -0.063 | G -0.355
C2: H -0.834
T21: W 0.106
Q28: A 0.09
T54: M -0.602 | F -0.79
L4: E -0.288
T42: D -0.015
